Test results reported in a protein production outcome set (Wang et al. 2014).

Assay: label from the status in PepcDB records

MDTSNLDTPMRMAAFDRVRGLNEVHDHLTATELQPGFLFRGERIPLVNPQRGIFKPHQMRFLLSIKTVFPKPGGKVWYDDQRDIQRQIFYGDEAIDYAFMGKNPDAADNRWLKEAYENQIPVVYFLGIAPGRYQALLPTFISGWDGQALKARITFGPNPEKLAPPSDSAERRYALRTVKQRLHQATFREAVISAYDGRCAFSGLPEPLLLDAAHIIADKDERLGHPVVTNGIPLSKIHHAAFDAHLIGIDPDFRLHVSDRLLGQNDGPMLEALKQLNGRNIRLPGRAKDHPDRDRLAMRFERYKSVA
protein production: failed

MKITILSGGTGTPKLIQGFKEILPNEDISVIVNTGEDTYIGDIYLSPDIDTVLYTFSNLINDETWYGLKGDTFFCHEQLKNFGFDEVLRIGDKDRALKMHKTSLLKKGVPMSEIVDIERKSLSINSKIYPMSDEKIESKVLIEENNEKILLKFHDFWVSRRGNAKVLDIFYENSNYAKAADGVLKAIEESDFVIIGPSNPITSIGPILSISEIKDALKEKLVFAVSPIVGENPVSGPAGTLMHAKGYPVNAVGVYEYYKDIVDVLVLDNSDINKKKEMNCEVLYANTIMKTIDDKITLARNILDYYKSR
protein production: failed

MSDWADLMNDLNKLQHSDAVTTAWQFTEQVPHGRDLGMQVVSVDQGQVCMRLTPQSWMFAHKDTKEICTSVLYSLADSAGGLAVFAGALELMPIATLDLRMDYLRPAIGDRALSAVATCRHLSDDVAFIHCDILSEGNRELLATANATFMRNTQGQQLHAGGPGKESA
protein production: failed

MSDAETLSVYAAKADDYANLTDEAAARDPSLVAFIAAMPKRGRVLDLGCGPGGSAAAMARAGLVVDAFDPVPEMVALAGRHAGVSARKAGFEDVTQVDHYDGIWANFSLLHAPRDDMPKHLARIATALKPGGRFHIGVKTGTGSKRDTLGRRYTYYSESELVDLLAAAGLTVFDRREGCDTGLDGVDAHWIVLAAHA
protein production: failed

MFSKGVDSLDRTQDDPVHCMPGLTAGLSGRLLLLTVIFVMIAEVLIFVPSVANMRLSWLRDRLNTAAAAGAVIDGLQAELPRSVQNDTLMATGAKLIALRKDGTSRLLAVAETPPGVDEQYDLSDVSQAAAVRDAFSTLLFGGNRVIRVFDVVGDSDTIIELVLGENKLRAAMLAYARNVFLISIVLSLVTAGLIFISINRIMIRPIRRLTLGMQNFSEDPGNPERIFVPEEGTDELSVAGRHLADMQTELQKTLRQQKNLVDLGLAVSKINHDMRNILSSAQLMSDRLVDAKDPMVRSFAPKLLRTIDRAVAYTGEVLAYGQATEGAPKRKIVPLSLLVRDVRDILALDPDSGIEFHDSVPPDLTVDADSEQLFRVIHNLCRNAVQALQSDVANSAPRHLSISAQRAGSVVSIVIDDNGPGMPRKAKENLFSAFRGSARSGGTGLGLVIARELVLAHGGTIALVEKPGPGTQFRIEIADRAASIQAARTA
protein production: failed

MDCRLKCTNQCTSLMMAFDKSHTIKGCSTEFSLSMTDTPILGTVKEPQRDYRTLDRQKLTPMFQHYTEVKEQYQGALLLYRVGDFFECFFQDAVIIARELELILTSKEGGKEIGRVAMTGVPHHALDRYARQLVEKGYAVAICDQVEDAAEAQAEKRMVERQVTKLLTPGTLTDDSMLPAKRNNFLAAIAMVEDKWGLAHADISTGEFFTCQSSNLDDLAVELLRLQPSEVLIPTSAPDIRNILRPGEPSEHIPKQLPTSFCYSLRSQAPFSLVEAKQRLLTTFRVKSLEGMGCEGLPLAIRAAGGLLEYIEDTQKAHVVPIQPLKTYGLTDFLVLDHQTRRNLEINQTVRDGSFHGSLLWALDRTSTTMGSRALRRWLLQPLLDLKGIQARQDTIQELYHHPALRQDLRQLLRQIYDLERLTGRIGANTASARDVYGLASSLVRLTDLAELAQEGHSPYLKALQTVPPELEELGKYVLAHIVENPPLHIREGNLIRSGVNPTLDEMRQSLEDDNQWLANLEVTEREKTGIANLKVGYNKAFGYYLSLPRSKSEQAPDNYIRKQTLVNEERYITPELKERETRILTAQADLNQLEYEIFTEVRATVAEKAQPIRDVAKAVAAIDVLAGLAEVAVYQGYCRPIMQMEPGLIDIEAGRHPVVEQSLGAGFFVANDTQLGHDHWHPDLVILTGPNASGKSCYLRQVGLIQLMAQTGSFIPAKTATLSICDRIFTRVGAVDDLATGQSTFMVEMNETANILNHATAKSLVLLDEIGRGTATFDGLAIAWSVAEYLAGEIQARTIFATHYHELNELASLLENVANFQVTVKELPEEIIFLHQVTPGGADKSYGIEAGRLAGLPSSVITRARQVMAQIEKHSKIAVGLRKGNRGKVMASQAAAEAAEDQAKQLDIFGF
protein production: failed

MARHRDRAAGMNMAMMRLRREDPRVVGSFRLHRRLGAGGMGVVYLGSDKKGQRVALKVIRPDLAEDQEFRSRFAREVSAARRIRGGCTARLVAADLEADRPWFATQYVPGPSLHDKVADGGPLGAADVAAVGAALSEGLVAVHEAGVVHRDLKPSNILLSPKGPRIIDFGIAWATGASTLTHVGTAVGSPGFLAPEQVRGAAVTPATDVFSLGATLAYASMGDSPFGHGSSEVMLYRVVHEEAQLHGVPDALAPLVRACLAKDPEERPSTLQLSLRLKEIAAREAQGMADVRPPAPRSGEADVPTGRLADTYPERAQRRPQGRPGPQGTPAPRGTSASRGSAPRGSVPSRGGAPSRGGTPSRGGTPSRGGTSSRGGGTGARSGSRPTPTRDTTGRNSSRNDGGRPAPRGGSGRTAPRTTGTGWRRPANPRLLRQRLFVFVVVTLLVALGIAAAQGCQGPARGLGDERGGGVRATQRDQVDPPGGLPEPRTPGR
protein production: failed

MPSLTTLRSRELGPETFIPYVRHVDESTIALDSRALMVMIALEGVSFETADILDLNALHRDLNTLYRNIADERLALWTHLIRRRDNSYPEGTFATPFSAALNDKYRERMVGEDLFRNDLYLSILWSPARDPADKAAKLLSRLRRARRVGTELDEGALKHLRDKVIDVTAALRRFEPRVLTLYEHDGLMFSEPSEVLHQLVGGRREPIPLTEGHIASAIYSDRVIVGRETIEIRHEADSRYAGMLSFKEYPARTRTGMLDAVLTSPFELILAQSFSFVSKADARMIMGRKQNQMVSSGDKAASQIEELDGAMDDLESNRFVFGEHHLTLSVFAPSVKELTDNLAKARASMTSGGAVVAREDLGLEAAWWAQLPGNFRYRARSGAITSRNFAALSPFHSYPLGQKDGNEWGPAVALLKTASGSPYYFNFHYGDLGNTFVCGPSGAGKTVLLNFMLSQLEKHDPHVVFFDKDRGADLYVRAAGGTYLPLKNGIPTGCTPLKALELTPENKVFLTRWVGKLVGSATRELSVTELRDISSAIDGLADLPVERRTIGALRTFLDNTNPEGIAARLRRWERGGPLGWVFDNVIEDIGFGEFGGGKLVGYDMTDFLDNEEIRAPLMAYLFHRVEQLIDGRRIIIVIDEFWKALQDEGFRDLAQNKLKTIRKQNGLMLFATQSPRDAIVSPIAHTIIEQCPTQIFLPNSRGNHGDYVDGFKLTEREFELVARELSIESRRFVLKQGHNSVVAELDLKGLDDELAILSGRTANVELADAIRAEVGSNAKDWLPVFQQRRSATLEHHHHHH
protein production: failed

MNLFRSERGALALLLGVSALILLLGLGSRELWGPETRWANIALQMLQSGDYFDPYLKGAPYYDKPLPSYWLITASAWLMGGLGHWSLRLSSVIAAWLSIWLVYLIGERLFHKGTGLIAGWMLATTFYFAFWARVATADVLTVCGVLAAVWWYWRGPEDTRLGRYTVFFLILAATSLLKGLIGFVLPGLILLPHLLSQGRWKRHLNLRLVLALSIAALFYMVPFVLSHLYGAPSYGESGLSLVFRENVVRFFNPFDHVGPIYTYLIYLPAYTLPWAPCWILGLWLAARHWRQLQPNERWLVWALGLLFLFFTASGSRRSYYVLPLVPFAQLLGAWWLNRRLQLRQAVGKPVSRGWPLGFSCAALVMLLVLGVAYPWSNSGGGVMQFSADTRAAASRIAPWNQWRMVMVEIDNKLPMYLQNQGAPFYYVAETADFPRNGSSADFMAWLDKTSGQHWDPQRTLIFVQQKHDEPLMLGYLGEDHQLVRTTPTNGERLAKKPAQGSVAFIPRIPGN
protein production: failed

MSLRSEQEMMDIFLDFALNDERIRLVTLEGSRTNRNIPPDNFQDYDISYFVTDVESFKENDQWLEIFGKRIMMQKPEDMELFPPELGNWFSYIILFEDGNKLDLTLIPIREAEDYFANNDGLVKVLLDKDSFINYKVTPNDRQYWIKRPTAREFDDCCNEFWMVSTYVVKGLARNEILFAIDHLNEIVRPNLLRMMAWHIASQKGYSFSMGKNYKFMKRYLSNKEWEELMSTYSVNGYQEMWKSLFTCYALFRKYSKAVSEGLAYKYPDYDEGITKYTEGIYCSVKEGHHHHHH
protein production: not failed

MTNFNIDFYAPAKEQRASTHSVMGLSSVPHPSPLFLETPYSELWSRHFGSAVVSLSVTADLAMLAVACKNRQLTVLSRDGELHWSHRLDDDITATAIASNHHVAVGTQQASDGAVAVYLFDADGRELFRTSLKSAVSSLTHSSNGEHLVIQCKNQAWYIASRVADTYQLSQANAEDVAQSKRNDALLAVKDRLLSEPNLYPHAASVAVSLEGTAAIGSLDGKIHLIDCQGKPLWSRQVDGEVWTLGISENGAIIASGCTDGTVKLLANHAHDAYNQYIHALQHSAERLKNTAEQQQAVSEILASLSQTGLAVYAVNWLQEGTLQLAPDALDEIVIKLLSEQVQRFPKHYASHFILAQTYQRRQEWHQAARHFTWAGQNERMKLKSFTLAAESFQKAGLPFAAKSAYRRARELTVTEEAKKTLYTLGRIHEEQGSITDAQKYYEVVFTLNPDYLDVCARLQNLNSPPATLTSRAVPENKDWYASLIRELLSPVSQHGFDLARQDNPAHSRTARLTSVAEHRKRLLSIVSEFSLDSVDNTADARLGYDVAAYMRYDCSVPEDEAKKSLELVNMLDCIKHYGPFSKSLDIGAATGRYPTLLAQQGIQAFGVDLEPMAVEFARKKSNGALNPQFHQGDARDLPFESTQFDLVTCMMGTAAHFPRQDVPTVMSEIHRCLVPGGFCVISTWDIECPHLTYLSIYSHEQKELMRQNAISRADVSEIAIAQGFVVEEIRGVGLLPESLGYELDLQQDGPERIRNLLDMDLAFQAKFPDLHGQMYMLIIRKI
protein production: failed

MLSYKHSNATLPILWGEAKRGDFDDLDKAFTQLLLTIGKHRLYTHHTPPYLCAFNAFKMEFIAFDDTITSFFYKSDIDFSITPSNHNTEGFKHALDAFKAMSKSHKFVFDFKTQSQECKEFIKNRLNSSHLLSKIQIDKNNFFTIYQKWLEIVKPTIDINWEVAKTKDILDADYYLADLLSDGDKTIIEKLHTILRSSHYKLNRGVNELGKMDFMEVGFTDSQQAHQEFWSVYERPPKREFQASILERRDLLVPSDVRERKGAFFTPKIWVEKSQEYLAKALGQDYQEDCIIWDCAGGTGNLLRGLLNKANLYLSTLDHNDVAIVKDLAAKNHLKLLENHVFQFDFLNDDFFSDKTPKSLQEILKDKEKRKKLIIYINPPYAEAGNKSKMSGTGEHKAKVARDNLICEKYKNELGKANNEVFAQFFMRIYKELNGVILASFSTLKNLQGSNFKKFREIFKAKFLEGFMVPADTFDNVRGQFPIGFLVWDTSSILPKENPLNLGGNSKEEKQNSNLILDQDNLKDNPLKERFCLLDINAPNRKMCSQSRTRTKGTQKHSTAAPFETPLHTVSLEIFDSFGGFLGSKKIYTHTIDKMLTLADYLQKFQPTKRDTIFGYLDPGRNSFQHQNLIHISIIDKSKQSHVKYFPIIATTILLVSVFFSIRHCIKATWQNDRDQFYAPYDDAFQDDSEFKNNCLIFMLFHTQNRITTAQGTNHFIPFSETEVNAKERYSSHALLEFLKGEIKELKENDSLFLSAKKENKPLKFSPSASKVFDASREVYRYYHTQDFTNRPYNANASLYDIKEFFQGRNKQGKLNLPAKAKDEYYKQLYANLQDALKDLAKEIQPKVYEYGFLRE
protein production: failed

MKKLLTLFCLMLGLSSTQALAAADNPVELIKDGSRQVLDVLKQDNGKNTKQVRQQAEAIAVPLFDFPRMTALAVGLGWRQATPEQRNELTQQFQTLLVRTYSTTMTRFKTAQVSVQPNPVSGANGKDVTVKSSVTLPGNANPVAVDYVLNKGDKGWKIYNVSVEGASLVTVYRNSFNEEIRKNGVDGLIKLLQDKNAAPAPAAASAAKGKGLEHHHHHH
protein production: failed

MICLTSKMMAFLPYFLELKGKRVNIQALINDRVSQAIEAAGAPAGTPALVRQSAKAQFGDYQANGIMGAAKQLGTNPREFAQKVLDVLNLEGIASKTEIAGPGFINIFLSEEFLAAQAEAALADAR
protein production: failed
